Test: Kinetic assessment of adenosine deaminase activity (ammonia assay, Michaelis-Menten)
Format: biochemical
Details: [E] = 8.5 nM
Method: Adenosine deaminase activity was determined by the measurement of ammonia released from adenosine when broken down to inosine. Ammonia was measured using a commercially available Ammonia Assay kit (Cat. No. AA0100, Sigma-Aldrich, St. Louis, Mo.). The kit contains dry reagents containing α-ketoglutaric acid and NADPH, which were reconstituted with 5 mL water prior to use in the assay. Ammonia reacts with α-ketogluaric acid (KGA) and reduced nicotinamide adenine dinucleotide phosphate (NADPH) in the presence of L-glutamate dehydrogenase (GDH).
Kinetics parameters of rHuADA2 WT and variants were compared using this assay at different adenosine concentrations at pH 7.6 and 6.5. Adenosine concentrations ranging from 20 μM to 20 mM were used. Sub-molar concentration of adenosine stock was prepared in 1N NaOH.
For the enzymatic assays at pH 7.6, adenosine was serially diluted with 100 mM sodium acetate (NaOAc), pH 4.9. A 2× reaction mixture was prepared, containing reconstituted ammonia assay reagent (containing about 4 mM α-ketoglutarate and about 300 μM NADPH), WT rHuADA2 or variants at 1 μg/mL (17 nM) and glutamate dehydrogenase (GDH, 1:50 dilution). 85 μL of adenosine was added to 85 μL 2× mixture in duplicate in a UV-transparent half-area plate. The change in absorbance (ΔA) at 340 nm over time at room temperature was monitored.
For the enzymatic assay at pH 6.5, adenosine was serially diluted with 200 mM piperazine-N,N′-bis(2-ethanesulfonic acid) (PIPES), pH 6.5. A 2× reaction mixture in 200 mM PIPES, pH 6.5 was prepared, containing 4 mM α-ketoglutarate, 300 μM NADPH, 1 μg/mL (17 nM) rHuADA2 or variants and 50 U/mL GDH (Cat No. G2626, Sigma-Aldrich). The enzymatic reaction was initiated by adding equal volume of adenosine to the 2× mixture in a UV-transparent half-area plate as described above, and the change in absorbance (AA) at 340 nm over time at room temperature was monitored.
Adenosine deaminase activity in mU/mL (μM/min equivalent) was calculated using the following formula: 1 mU/mL=−(−ΔA/min×Tv)/(Sv×ϵ×1) • where Tv=total volume (170 μL), Sv=sample volume (85 μL), ϵ=6.22×10^−3 μM^−1 cm^−1, 1=1 cm.
The activity data were fitted with non-linear regression of Michaelis-Menten equation using Graphpad Prism software to obtain Km and Vmax. Other kinetics parameters such as kcat and kcat/Km were also determined.

Molecule | Km (pH 6.5) [µM] | Vmax (pH 6.5) [µM/min] | kcat (pH 6.5, kcat=Vmax/0.0085/60) [s⁻¹] | Km (pH 7.6) [µM] | Vmax (pH 7.6) [µM/min] | kcat (pH 7.6, kcat=Vmax/0.0085/60) [s⁻¹] | kcat (pH 7.6) [s⁻¹]
R222Q/S265N/K374D: ADA2 combination variant SEQ ID NO:269 (protein, human ADA2 R219Q/S262N/K371D, mature numbering) IDETRAHLLLKEKMMRLGGRLVLNTKEELANERLMTLKIAEMKEAMRTLIFPPSMHFFQAKHLIERSQVFNILRMMPKGAALHLHDIGIVTMDWLVRNVTYRPHCHICFTPRGIMQFRFAHPTPRPSEKCSKWILLEDYRKRVQNVTEFDDSLLRNFTLVTQHPEVIYTNQNVVWSKFETIFFTISGLIHYAPVFRDYVFRSMQEFYEDNVLYMEIRAQLLPVYELSGEHHDEEWSVKTYQEVAQKFVETHPEFIGIKIIYNDHRSKDVAVIAESIRMAMGLRIKFPTVVAGFDLVGHEDTGHSLHDYKEALMIPAKDGVKLPYFFHAGETDWQGTSIDRNILDALMLNTTRIGHGFALSKHPAVRTYSWDKDIPIEVCPISNQVLKLVSDLRNHPVATLMATGHPMVISSDDPAMFGAKGLSYDFYEVFMGIGGMKADLRTLKQLAMNSIKYSTLLESEKNTFMEIWKKRWDKFIADVATK | 760 | 50.89 | 99.78 | 1190 | 70.96 | 139.14 | –
R222Q/S265N/R23E: ADA2 combination variant SEQ ID NO:270 (protein, human ADA2 R219Q/S262N/R20E, mature numbering) IDETRAHLLLKEKMMRLGGELVLNTKEELANERLMTLKIAEMKEAMRTLIFPPSMHFFQAKHLIERSQVFNILRMMPKGAALHLHDIGIVTMDWLVRNVTYRPHCHICFTPRGIMQFRFAHPTPRPSEKCSKWILLEDYRKRVQNVTEFDDSLLRNFTLVTQHPEVIYTNQNVVWSKFETIFFTISGLIHYAPVFRDYVFRSMQEFYEDNVLYMEIRAQLLPVYELSGEHHDEEWSVKTYQEVAQKFVETHPEFIGIKIIYNDHRSKDVAVIAESIRMAMGLRIKFPTVVAGFDLVGHEDTGHSLHDYKEALMIPAKDGVKLPYFFHAGETDWQGTSIDRNILDALMLNTTRIGHGFALSKHPAVRTYSWKKDIPIEVCPISNQVLKLVSDLRNHPVATLMATGHPMVISSDDPAMFGAKGLSYDFYEVFMGIGGMKADLRTLKQLAMNSIKYSTLLESEKNTFMEIWKKRWDKFIADVATK | 1010 | 40.59 | 79.59 | 1290 | 67.24 | 131.84 | –
R222Q/S265N/K374E/R23E: ADA2 combination variant SEQ ID NO:271 (protein, human ADA2 R219Q/S262N/K371E/R20E, mature numbering) IDETRAHLLLKEKMMRLGGELVLNTKEELANERLMTLKIAEMKEAMRTLIFPPSMHFFQAKHLIERSQVFNILRMMPKGAALHLHDIGIVTMDWLVRNVTYRPHCHICFTPRGIMQFRFAHPTPRPSEKCSKWILLEDYRKRVQNVTEFDDSLLRNFTLVTQHPEVIYTNQNVVWSKFETIFFTISGLIHYAPVFRDYVFRSMQEFYEDNVLYMEIRAQLLPVYELSGEHHDEEWSVKTYQEVAQKFVETHPEFIGIKIIYNDHRSKDVAVIAESIRMAMGLRIKFPTVVAGFDLVGHEDTGHSLHDYKEALMIPAKDGVKLPYFFHAGETDWQGTSIDRNILDALMLNTTRIGHGFALSKHPAVRTYSWEKDIPIEVCPISNQVLKLVSDLRNHPVATLMATGHPMVISSDDPAMFGAKGLSYDFYEVFMGIGGMKADLRTLKQLAMNSIKYSTLLESEKNTFMEIWKKRWDKFIADVATK | 770 | 54.82 | 107.49 | 1240 | 90.91 | 178.25 | –
R222Q/S265N/K374D/R23E: ADA2 combination variant SEQ ID NO:272 (protein, human ADA2 R219Q/S262N/K371D/R20E, mature numbering) IDETRAHLLLKEKMMRLGGELVLNTKEELANERLMTLKIAEMKEAMRTLIFPPSMHFFQAKHLIERSQVFNILRMMPKGAALHLHDIGIVTMDWLVRNVTYRPHCHICFTPRGIMQFRFAHPTPRPSEKCSKWILLEDYRKRVQNVTEFDDSLLRNFTLVTQHPEVIYTNQNVVWSKFETIFFTISGLIHYAPVFRDYVFRSMQEFYEDNVLYMEIRAQLLPVYELSGEHHDEEWSVKTYQEVAQKFVETHPEFIGIKIIYNDHRSKDVAVIAESIRMAMGLRIKFPTVVAGFDLVGHEDTGHSLHDYKEALMIPAKDGVKLPYFFHAGETDWQGTSIDRNILDALMLNTTRIGHGFALSKHPAVRTYSWDKDIPIEVCPISNQVLKLVSDLRNHPVATLMATGHPMVISSDDPAMFGAKGLSYDFYEVFMGIGGMKADLRTLKQLAMNSIKYSTLLESEKNTFMEIWKKRWDKFIADVATK | 810 | 45.78 | 89.76 | 1230 | 72.58 | 142.31 | –
K374D/V102-Q147del→(GGGGS)3 (protein, (GGGGS)3 linker replaces deleted region; human ADA2 K371D/V99-Q144del->(GGGGS)3, mature numbering) IDETRAHLLLKEKMMRLGGRLVLNTKEELANERLMTLKIAEMKEAMRTLIFPPSMHFFQAKHLIERSQVFNILRMMPKGAALHLHDIGIVTMDWLVRNGGGGSGGGGSGGGGSNVTEFDDSLLRNFTLVTQHPEVIYTNQNVVWSKFETIFFTISGLIHYAPVFRDYVFRSMQEFYEDNVLYMEIRARLLPVYELSGEHHDEEWSVKTYQEVAQKFVETHPEFIGIKIIYSDHRSKDVAVIAESIRMAMGLRIKFPTVVAGFDLVGHEDTGHSLHDYKEALMIPAKDGVKLPYFFHAGETDWQGTSIDRNILDALMLNTTRIGHGFALSKHPAVRTYSWDKDIPIEVCPISNQVLKLVSDLRNHPVATLMATGHPMVISSDDPAMFGAKGLSYDFYEVFMGIGGMKADLRTLKQLAMNSIKYSTLLESEKNTFMEIWKKRWDKFIADVATK | – | – | – | 820 | 43.01 | – | 84.33
K374D/C108-T150del→(GGGGS)1 (protein, C108-T150 replaced by GGGGS linker; human ADA2 K371D/C105-T147del->(GGGGS)1, mature numbering) IDETRAHLLLKEKMMRLGGRLVLNTKEELANERLMTLKIAEMKEAMRTLIFPPSMHFFQAKHLIERSQVFNILRMMPKGAALHLHDIGIVTMDWLVRNVTYRPHGGGGSEFDDSLLRNFTLVTQHPEVIYTNQNVVWSKFETIFFTISGLIHYAPVFRDYVFRSMQEFYEDNVLYMEIRARLLPVYELSGEHHDEEWSVKTYQEVAQKFVETHPEFIGIKIIYSDHRSKDVAVIAESIRMAMGLRIKFPTVVAGFDLVGHEDTGHSLHDYKEALMIPAKDGVKLPYFFHAGETDWQGTSIDRNILDALMLNTTRIGHGFALSKHPAVRTYSWDKDIPIEVCPISNQVLKLVSDLRNHPVATLMATGHPMVISSDDPAMFGAKGLSYDFYEVFMGIGGMKADLRTLKQLAMNSIKYSTLLESEKNTFMEIWKKRWDKFIADVATK | – | – | – | 910 | 43.1 | – | 84.51
K374D/C108-T150del→(GGGGS)2 (protein, C108-T150 replaced by (GGGGS)2; human ADA2 K371D/C105-T147del->(GGGGS)2, mature numbering) IDETRAHLLLKEKMMRLGGRLVLNTKEELANERLMTLKIAEMKEAMRTLIFPPSMHFFQAKHLIERSQVFNILRMMPKGAALHLHDIGIVTMDWLVRNVTYRPHGGGGSGGGGSEFDDSLLRNFTLVTQHPEVIYTNQNVVWSKFETIFFTISGLIHYAPVFRDYVFRSMQEFYEDNVLYMEIRARLLPVYELSGEHHDEEWSVKTYQEVAQKFVETHPEFIGIKIIYSDHRSKDVAVIAESIRMAMGLRIKFPTVVAGFDLVGHEDTGHSLHDYKEALMIPAKDGVKLPYFFHAGETDWQGTSIDRNILDALMLNTTRIGHGFALSKHPAVRTYSWDKDIPIEVCPISNQVLKLVSDLRNHPVATLMATGHPMVISSDDPAMFGAKGLSYDFYEVFMGIGGMKADLRTLKQLAMNSIKYSTLLESEKNTFMEIWKKRWDKFIADVATK | – | – | – | 850 | 36.92 | – | 72.39

Source: patent US9969998B2, “Compositions of adenosine deaminase-2 (ADA2), variants thereof and methods of using same” (Halozyme, Inc., priority 2014, dated 2018)
